B1: Hairpin Ribozyme (parent)
chain: GUCCUCUUUCACGUGCGCGUGAAAGAGAGAAGUGAACCAGAGAAACACACGUUGUGGUAUAUUACCUGGUA

Variants of: B1
Experiment: self-cleavage, relative activity (ratio to wild type); higher = more cleavage; co-transcriptional

First: G40C U63C
Second: G40A G51C
The self-cleavage of the first is lower: 0.164 for the first, 0.238 for the second.

First: G42C G56A
Second: A39U U62G
The self-cleavage of the first is higher: 0.155 for the first, 0.088 for the second.

First: A41C U60C
Second: A41C U60A
The self-cleavage of the first is higher: 1.27 for the first, 1.17 for the second.

Compared with A41U A45U, G40A A41C is higher in self-cleavage: 0.0714 for the first, 0.274 for the second.

Compared with A41U A59G, A41U A59C is lower in self-cleavage: 0.255 for the first, 0.158 for the second.

Going from A41C G56A to G42U U58G, the self-cleavage rises from 0.155 to 0.192.

Going from G42U U58C to A41U G57A, the self-cleavage falls from 0.259 to 0.145.

First: A41U G57C
Second: G40U A49G
The self-cleavage of the first is higher: 0.178 for the first, 0.175 for the second.

Going from G42U G51C to A43G A59G, the self-cleavage falls from 0.392 to 0.094.

Going from G40U G42U to G40U A59C, the self-cleavage falls from 0.116 to 0.0879.

Compared with G40U A59G, G42U U63A is higher in self-cleavage: 0.115 for the first, 0.195 for the second.

Compared with A39U U63C, G40A G57A is lower in self-cleavage: 0.144 for the first, 0.0955 for the second.

First: A43C U52A
Second: G40A U60A
The self-cleavage of the first is lower: 0.136 for the first, 0.271 for the second.

Going from G40A U60G to G42A C66A, the self-cleavage falls from 0.214 to 0.0634.

First: G42A C66G
Second: G40A U55A
The self-cleavage of the first is lower: 0.113 for the first, 0.157 for the second.

First: G40C C66A
Second: G40C C66U
The self-cleavage of the first is lower: 0.105 for the first, 0.184 for the second.

Compared with G40C C66G, A41C U63A is lower in self-cleavage: 0.519 for the first, 0.108 for the second.

First: A41C U63G
Second: A41C U63C
The self-cleavage of the first is lower: 0.102 for the first, 0.192 for the second.

Going from A41C A61U to G42A A61G, the self-cleavage falls from 0.234 to 0.201.

First: G42A U60G
Second: G42A U60C
The self-cleavage of the first is lower: 0.157 for the first, 0.371 for the second.

Compared with G42C A45C, A41G C46G is higher in self-cleavage: 0.0604 for the first, 0.116 for the second.

First: G42A C46A
Second: G42C A43U
The self-cleavage of the first is higher: 0.152 for the first, 0.106 for the second.

Going from G42C C48A to A39U G69U, the self-cleavage rises from 0.134 to 0.151.

Compared with A39U G69A, A39U G69C is lower in self-cleavage: 0.157 for the first, 0.073 for the second.

Going from G40U A71C to G40U A71G, the self-cleavage falls from 0.319 to 0.209.

First: G40A A71U
Second: G40A A71C
The self-cleavage of the first is lower: 0.198 for the first, 0.574 for the second.

Compared with A41C G57U, A41G U52C is higher in self-cleavage: 0.502 for the first, 0.827 for the second.

First: A41G U58A
Second: A41G U58C
The self-cleavage of the first is lower: 0.46 for the first, 0.911 for the second.

Compared with G40A A61G, A41G U67G is higher in self-cleavage: 0.139 for the first, 0.5 for the second.

Compared with A41G U67C, A39U U52C is lower in self-cleavage: 0.483 for the first, 0.378 for the second.

First: A43C G54U
Second: A41G G69C
The self-cleavage of the first is lower: 0.241 for the first, 0.534 for the second.

Going from A41G G69A to A41C C50G, the self-cleavage rises from 0.411 to 0.667.

Compared with A41C C50U, G40U G57U is lower in self-cleavage: 0.713 for the first, 0.153 for the second.

Compared with G40U G57C, G42U U62A is higher in self-cleavage: 0.124 for the first, 0.2 for the second.

First: G42U U62G
Second: G42U U62C
The self-cleavage of the first is higher: 0.22 for the first, 0.149 for the second.

Going from A41G U55C to G42C U70A, the self-cleavage falls from 0.23 to 0.222.

Going from G42C U70C to A41G A61G, the self-cleavage falls from 0.233 to 0.179.

Compared with G42C A49C, A41C U67G is lower in self-cleavage: 0.215 for the first, 0.124 for the second.

First: A41U U58G
Second: A41U U58A
The self-cleavage of the first is lower: 1.02 for the first, 1.2 for the second.

Compared with G42C G54U, G42C G54A is lower in self-cleavage: 0.17 for the first, 0.159 for the second.

First: G40U U52C
Second: G40U U52G
The self-cleavage of the first is higher: 0.333 for the first, 0.172 for the second.

Going from G40U U52A to G40U C48A, the self-cleavage falls from 0.207 to 0.0709.

First: G40C C50A
Second: A41C U53C
The self-cleavage of the first is lower: 0.0683 for the first, 0.822 for the second.

First: A41G U63G
Second: A41G U63C
The self-cleavage of the first is higher: 0.248 for the first, 0.0946 for the second.

First: A41C A49C
Second: G40C A47U
The self-cleavage of the first is higher: 0.217 for the first, 0.0303 for the second.

First: G40C A43G
Second: A41G G57C
The self-cleavage of the first is lower: 0.138 for the first, 0.172 for the second.

First: G42A U70G
Second: G40C G69U
The self-cleavage of the first is higher: 0.161 for the first, 0.128 for the second.

Going from G40C G69A to A43C G51U, the self-cleavage falls from 0.111 to 0.0904.

Going from G42U C65U to A41G G54U, the self-cleavage rises from 0.12 to 0.577.

Going from G40A U62G to A41C A44C, the self-cleavage falls from 0.133 to 0.0994.

First: A43G A44G
Second: A41U U53C
The self-cleavage of the first is lower: 0.0966 for the first, 1.25 for the second.

Compared with A43C U53G, G42C U58A is higher in self-cleavage: 0.103 for the first, 0.218 for the second.

Compared with A41G C66G, G42U C48U is lower in self-cleavage: 0.255 for the first, 0.132 for the second.

Going from G40U U62G to G40U U60C, the self-cleavage rises from 0.111 to 0.148.

Going from A41U U52A to A41U U52C, the self-cleavage falls from 1.23 to 1.11.

Going from A41G A44G to G42A A59U, the self-cleavage falls from 0.249 to 0.101.

First: G42A A59G
Second: A41G G68C
The self-cleavage of the first is lower: 0.264 for the first, 0.508 for the second.

Going from G40C A64U to A41G G42A, the self-cleavage rises from 0.125 to 0.282.

First: A41G G42C
Second: A39U G57U
The self-cleavage of the first is lower: 0.0762 for the first, 0.123 for the second.

Compared with A43G C48U, A43G C48A is higher in self-cleavage: 0.123 for the first, 0.174 for the second.

Compared with G40U U55C, G40U U55G is higher in self-cleavage: 0.171 for the first, 0.232 for the second.

Compared with A43C U70G, A43C U70C is higher in self-cleavage: 0.12 for the first, 0.164 for the second.

Compared with G42C U63C, G40U U58G is higher in self-cleavage: 0.148 for the first, 0.183 for the second.

Compared with G40C G68A, G40C G68C is lower in self-cleavage: 0.132 for the first, 0.0987 for the second.

Going from G40U C50G to G40U C50A, the self-cleavage falls from 0.136 to 0.0746.

First: G40U G69C
Second: G40A A44U
The self-cleavage of the first is lower: 0.14 for the first, 0.178 for the second.

Compared with A43G A64G, G42A A43U is higher in self-cleavage: 0.132 for the first, 0.215 for the second.

Going from G42U A59G to G42U A59U, the self-cleavage falls from 0.172 to 0.151.

Compared with G42U A59C, G42C G68A is higher in self-cleavage: 0.118 for the first, 0.119 for the second.

Going from G42C G68U to G42C G68C, the self-cleavage rises from 0.138 to 0.151.

Compared with A43C A59C, G42U C46A is higher in self-cleavage: 0.195 for the first, 0.201 for the second.

Compared with A41G U70G, A41G U70C is higher in self-cleavage: 0.677 for the first, 0.981 for the second.

First: A43C U62A
Second: A41U U67G
The self-cleavage of the first is lower: 0.12 for the first, 0.534 for the second.

First: A41U U67A
Second: A43G A45C
The self-cleavage of the first is higher: 0.364 for the first, 0.142 for the second.

Going from A43G A45G to G40A A47G, the self-cleavage rises from 0.104 to 0.138.

First: A41C A43C
Second: A41U C66G
The self-cleavage of the first is lower: 0.0734 for the first, 0.172 for the second.

Compared with A41U C66A, G40U U70G is lower in self-cleavage: 0.271 for the first, 0.0618 for the second.

Compared with A43G A61C, A41U U63A is higher in self-cleavage: 0.0791 for the first, 0.105 for the second.

Going from G40U G54U to G40C G54A, the self-cleavage rises from 0.096 to 0.124.

First: G40C G54U
Second: A41G G51U
The self-cleavage of the first is lower: 0.0743 for the first, 0.552 for the second.

Going from A41G G51A to A43C, the self-cleavage falls from 1.09 to 0.141.

First: A43G
Second: A41C G42U
The self-cleavage of the first is lower: 0.148 for the first, 0.231 for the second.

Compared with A43C G68C, G40A G42A is higher in self-cleavage: 0 for the first, 0.0412 for the second.

G40A C46A showed a self-cleavage of 0.184.

Reference: the RNAGym collection of RNA variant scans (doi:10.7554/elife.80360)
